Experimental data: patent US20110033951, “ASSAY METHOD AND KIT FOR NUCLEIC ACID BINDING PROTEIN” (Hiroshima University, published 2011)

What was measured:
NF-kappaB p50 [1] = biological target: T1, NF-kappaB p50 (Homo sapiens, UniProt P19838 P19838:1-433); assay: competition; SP1 decoy did not affect NF-kB/DNA signal; conditions: tags: Promega; chain copies: 2
Experimental: (§1) A mixed solution of 31F/42 and 05C/08 (40 fmol each), 800 fmol of the decoy (NF01/02 or SP01/02), a solution of a protein mixture (2.5 pmol of recombinant human SP1 and 0.125 pmol of recombinant human NFκB p50) were mixed into a reaction solution (10 mM HEPES-NaOH pH 7.9, 50 mM KCl, 0.1 mM EDTA, 5 mM DTT, 10% glycerol, 0.05% IGEPAL CA-630, 15 μL) and reacted at 25° C. for 30 minutes. A mixed solution of 32D/41 and 06B/07 (80 fmol each) was added thereto, and 50 μL of the resulting mixture was then reacted at 25° C. for 120 minutes. The fluorescence values of fluorescein and Cy3 were measured using a fluorescence plate reader Ultra (Tecan Group Ltd.). The fluorescein was excited at 485 nm, and its fluorescence was measured at 535 nm. The Cy3 was excited at 535 nm and its fluorescence was measured at 595 nm.

SP1 [2] = biological target: T2, SP1 (Homo sapiens, UniProt P08047 P08047:2-785); assay: competition; decoy lowered only SP1/DNA signal; conditions: tags: Promega
T2 sequence (P08047 2-785, one chain of several): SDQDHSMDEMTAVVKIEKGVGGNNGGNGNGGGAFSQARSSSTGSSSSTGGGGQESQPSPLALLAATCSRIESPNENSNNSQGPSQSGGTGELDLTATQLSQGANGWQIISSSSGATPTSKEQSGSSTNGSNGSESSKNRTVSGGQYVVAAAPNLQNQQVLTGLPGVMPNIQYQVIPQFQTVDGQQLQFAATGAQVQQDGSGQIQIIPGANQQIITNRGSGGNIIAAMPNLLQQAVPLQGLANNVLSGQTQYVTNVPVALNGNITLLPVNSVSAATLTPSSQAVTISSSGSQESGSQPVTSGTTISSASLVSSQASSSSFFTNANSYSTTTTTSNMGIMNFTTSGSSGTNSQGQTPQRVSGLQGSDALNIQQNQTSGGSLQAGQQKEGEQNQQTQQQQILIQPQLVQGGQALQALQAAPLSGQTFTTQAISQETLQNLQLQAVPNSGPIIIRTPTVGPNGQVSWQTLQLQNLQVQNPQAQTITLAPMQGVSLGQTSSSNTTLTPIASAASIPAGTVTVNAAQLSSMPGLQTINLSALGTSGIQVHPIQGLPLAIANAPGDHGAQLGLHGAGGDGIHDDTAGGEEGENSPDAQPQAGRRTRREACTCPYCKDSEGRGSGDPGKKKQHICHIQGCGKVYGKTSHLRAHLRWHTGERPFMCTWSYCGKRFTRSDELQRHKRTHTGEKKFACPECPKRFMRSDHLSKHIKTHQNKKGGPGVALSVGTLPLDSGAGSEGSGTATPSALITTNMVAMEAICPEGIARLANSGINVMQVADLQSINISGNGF
Experimental: as §1

NF-kappaB p50 [3] = biological target: T1, NF-kappaB p50; assay: competition; decoy without NF-kB site did not compete; conditions: tags: Promega; chain copies: 2
Experimental: (§2) The fluorescence value was measured using a real-time PCR apparatus Rotor-Gene 2000 (Corbett Life Science).

NF-kappaB p50 [4] = biological target: T1, NF-kappaB p50; assay: competition; decoy restored strand exchange; conditions: tags: Promega; chain copies: 2
Experimental: as §2

SP1 [5] = biological target: T2, SP1; assay: competition; NF-kB decoy did not affect SP1/DNA signal; conditions: tags: Promega
Experimental: as §1

T1 sequence (P19838 1-433, one chain of several): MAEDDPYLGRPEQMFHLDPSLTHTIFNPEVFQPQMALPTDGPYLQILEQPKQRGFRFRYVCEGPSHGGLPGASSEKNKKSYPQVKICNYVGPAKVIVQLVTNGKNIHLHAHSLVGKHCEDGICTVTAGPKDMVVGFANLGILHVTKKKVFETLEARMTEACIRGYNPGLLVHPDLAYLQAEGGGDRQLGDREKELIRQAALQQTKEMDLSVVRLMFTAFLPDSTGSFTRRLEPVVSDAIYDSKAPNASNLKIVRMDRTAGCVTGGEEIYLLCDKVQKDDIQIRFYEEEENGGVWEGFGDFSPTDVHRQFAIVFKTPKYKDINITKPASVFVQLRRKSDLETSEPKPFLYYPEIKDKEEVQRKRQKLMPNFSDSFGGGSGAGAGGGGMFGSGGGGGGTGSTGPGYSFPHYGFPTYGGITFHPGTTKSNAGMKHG

B1: SP01/02 decoy (dsDNA)
DNA 1: TCGAGCGGGGCGGGGCGACGAA
DNA 2: TTCGTCGCCCCGCCCCGCTCGA
- binding result (NF-kappaB p50 [1]): no binding
- binding result (SP1 [2]): binds

B2: APcpt decoy (dsDNA)
DNA 1: GGTGTCATGAGTCAGCTCGGAG
DNA 2: CTCCGAGCTGACTCATGACACC
- binding result (NF-kappaB p50 [3]): no binding

B3: NFcpt decoy (NF01/02) (dsDNA)
DNA 1: GCACTAGGGACTTTCCGCCACG
DNA 2: CGTGGCGGAAAGTCCCTAGTGC
- binding result (NF-kappaB p50 [4]): binds
- binding result (SP1 [5]): no binding
